The numbers were not newly measured in publication PMC4317646, which cites them from elsewhere.

The target of this data set is ADP-G-actin (Saccharomyces cerevisiae) (UniProt P60010).

Sequence of C-Srv2 C-terminal half (P17555 253-526): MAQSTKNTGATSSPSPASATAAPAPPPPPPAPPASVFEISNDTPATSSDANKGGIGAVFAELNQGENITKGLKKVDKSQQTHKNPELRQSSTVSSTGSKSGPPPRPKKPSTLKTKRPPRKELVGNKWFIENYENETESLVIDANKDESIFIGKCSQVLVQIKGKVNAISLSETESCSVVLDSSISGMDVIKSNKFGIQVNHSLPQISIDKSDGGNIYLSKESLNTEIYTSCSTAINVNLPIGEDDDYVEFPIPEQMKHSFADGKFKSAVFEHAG

By Kd is commonly meant the constant that tells how readily two partners part at equilibrium. Regarding “C-Srv2 C-terminal half (from UniProt P17555)”, the Kd was 18 nM.
